Results published in article PMC11396517, “Differences in the Renal Accumulation of Radiogallium-Labeled (Glu)14 Peptides Containing Different Optical Isomers of Glutamic Acid” (Molecules, 2024).
Read-outs that look alike come from different tables or passages of the source.

Experiments:
in vivo = test: in vivo; design: species or system ddY mice; settings: male, ddY, mouse, iv, 37 kBq/100 uL, total radioactivity
Protocol: Biodistribution experiments were performed after an intravenous administration of each tracer solution diluted in saline (37 kBq/100 μL) to 6-week-old male ddY mice (weight, 27–32 g, Japan SLC, Inc., Hamamatsu, Japan). Four mice were sacrificed at each time point for each compound at 10, 60, and 180 min post-injection. The tissues of interest were dissected and weighed. Complete left femurs were isolated as representative bone samples, radioactivity counts were determined using an auto well gamma counter (ARC-7010, ALOKA Co., Ltd.), and counts were corrected for the background radiation and physical decay that occurred during counting.

[1] = Hydroxyapatite-binding assay; settings: hydroxyapatite beads 1, 2.5, 10, 25 mg/mL in Tris/HCl-buffered saline 50 mM pH 7.4, ligand 19.5 µM, 1 h, room temperature, gamma counter, four samples; Figure 2
Protocol: Hydroxyapatite-binding assays were performed according to procedures described previously. Briefly, hydroxyapatite beads (Bio-Gel; Bio-Rad, Hercules, CA, USA) were suspended in Tris/HCl-buffered saline (50 mM, pH 7.4) at 1 mg/mL, 2.5 mg/mL, 10 mg/mL, and 25 mg/mL. For the solutions of [^67Ga]Ga-HBED-CC-(D-Glu)14, [^67Ga]Ga-HBED-CC-(DL-Glu)14, and [^67Ga]Ga-HBED-CC-(D-Glu-L-Glu)7, the ligand concentrations were adjusted to 19.5 µM by adding the corresponding HBED-CC conjugated Glu peptides. A solution of each [^67Ga]Ga-HBED-CC-(D-Glu)14, [^67Ga]Ga-HBED-CC-(DL-Glu)14, and [^67Ga]Ga-HBED-CC-(D-Glu-L-Glu)7 (200 µL each) was added to 200 μL of the hydroxyapatite suspension, and the samples were gently shaken for 1 h at room temperature. After centrifugation at 10,000× g for 5 min, the radioactivity of the supernatants was measured using an auto well gamma counter (ARC-7010B, ALOKA Co., Ltd., Tokyo, Japan). […] The ratios of binding were determined as follows:Hydroxyapatite binding (%) = (1 − [sample supernatant radioactivity]/[control supernatant radioactivity]) × 100

[2] = hydroxyapatite beads; Figure 2; cited from earlier work
Protocol: To determine the affinity of the compounds for hydroxyapatite, the hydroxyapatite-binding assay was performed. The hydroxyapatite-binding rates of [^67Ga]Ga-HBED-CC-(L-Glu)14, [^67Ga]Ga-HBED-CC-(D-Glu)14, [^67Ga]Ga-HBED-CC-(DL-Glu)14, and [^67Ga]Ga-HBED-CC-(D-Glu-L-Glu)7 are illustrated in Figure 2. The binding profiles of each tracer were similar.

Row | Hydroxyapatite binding profile (in words) [1] | Compound | tissue uptake dose at 10 min (in vivo) [%ID] | tissue uptake dose at 1 h (in vivo) [%ID] | tissue uptake dose at 3 h (in vivo) [%ID] | Hydroxyapatite binding profile (in words) [2]
1 | similar | O=C(O)CCc1ccc(O)c(CN(CCN(CC(=O)O)Cc2cc(CCC(=O)N[C@H](CCC(=O)O)C(=O)N[C@@H](CCC(=O)O)C(=O)N[C@H](CCC(=O)O)C(=O)N[C@@H](CCC(=O)O)C(=O)N[C@H](CCC(=O)O)C(=O)N[C@@H](CCC(=O)O)C(=O)N[C@H](CCC(=O)O)C(=O)N[C@@H](CCC(=O)O)C(=O)N[C@H](CCC(=O)O)C(=O)N[C@@H](CCC(=O)O)C(=O)N[C@H](CCC(=O)O)C(=O)N[C@@H](CCC(=O)O)C(=O)N[C@H](CCC(=O)O)C(=O)N[C@@H](CCC(=O)O)C(=O)O)ccc2O)CC(=O)O)c1 [[67Ga]Ga-HBED-CC-(D-Glu-L-Glu)7, metal not drawn] | 0.32 | 0.84 | 0.48 | 
2 | similar | O=C(O)CCc1ccc(O)c(CN(CCN(CC(=O)O)Cc2cc(CCC(=O)N[C@H](CCC(=O)O)C(=O)N[C@H](CCC(=O)O)C(=O)N[C@H](CCC(=O)O)C(=O)N[C@H](CCC(=O)O)C(=O)N[C@H](CCC(=O)O)C(=O)N[C@H](CCC(=O)O)C(=O)N[C@H](CCC(=O)O)C(=O)N[C@H](CCC(=O)O)C(=O)N[C@H](CCC(=O)O)C(=O)N[C@H](CCC(=O)O)C(=O)N[C@H](CCC(=O)O)C(=O)N[C@H](CCC(=O)O)C(=O)N[C@H](CCC(=O)O)C(=O)N[C@H](CCC(=O)O)C(=O)O)ccc2O)CC(=O)O)c1 [[67Ga]Ga-HBED-CC-(D-Glu)14, metal not drawn] | 0.57 | 0.51 | 0.76 | 
3 |  | [^67Ga]Ga-N,N′-bis-[2-hydroxy-5-(carboxyethyl)benzyl]ethylenediamine-N,N′-diacetic acid-conjugated (L-Glu)14 [[^67Ga]Ga-HBED-CC-(L-Glu)14] |  |  |  | similar
